# According to publication doi:10.1101/2024.10.02.616342:
# Target: mNG-BCR-ABL (biotinylated Avitag-linker-mNeon Green-linker-p210 BCR-ABL, full length) (human) (UniProt P00519)
# Assay: single-molecule TIRF pull-down
substance,measurement,value
"mNG-BCR-ABL (biotinylated Avitag-linker-mNeon Green-linker-p210 BCR-ABL, full length) (from UniProt P00519-1 28-1130)",percent dimeric,55%
same,percent monomeric,40%
same,percent tetramer,5%
same,stoichiometry N,2
